From patent US20040001839A1, “Multimers - isolated molecules comprising epitopes containing sulfated moieties, antibodies to such epitopes, and uses thereof” (priority 2000, published 2004) come the findings set out here.

One experiment has as its system KG-1 cells. Briefly: Binding competition experiments on KG-1 cells (monomer, dimer, Y1 IgG). Details: species or system human. The text has this: To compare the binding of the scFv monomer (also referred to as CONY1) with the Y1 dimer, binding competition experiments were done in vitro on KG-1 cells. In addition, these experiments also compared the binding of the full Y1 IgG to the scFv Y1 monomers. To perform this study, a Y1 IgG was labeled with biotin.

For a further experiment, the system named is Heparin - BSA. Briefly: Western blot with Y1 on SDS-PAGE reducing gels, heparin-BSA after aryl-sulfatase. It counts as binding. To be noted: 18 hr at 22° C. The text has this:
Y1 ligand was further characterized using enzymatic treatments with proteases, glycanases, and […]; Western blotting with Y1, anti-CD42 antibodies, anti-CD162 antibodies and 181, immunoprecipitation using Y1 and anti-CD162 antibodies; FACS analysis using Y1 anti-CD162 antibodies; and sequencing.
The table below summarizes the biochemical experiments preformed to characterize and localize the Y1 binding site on KG-1 cells.
The nitrocellulose membrane was blocked using 5% skim milk for one hour at room temperature. The membrane was then washed 3 times for 5 minutes each with 0.05% Tween 20 in PBS at room temperature. The membrane was incubated with 5 μg/ml Y1-biotin (or 181-biotin) in 2% skim milk in PBS for one hour at room temperature. The membrane was then washed 3 times for 5 minutes each with cold 0.05% Tween 20 in PBS in the cold room (about 4 to about 10° C.). The membrane was then incubated in the cold room with a 1:1000 dilution of SAV-HRP (streptavidin-HRP) (at a final concentration of […]) in 2% skim milk, 0.05% Tween. The dilution was carried out at room temperature (about 25° C.), then the diluted SAV-HRP was cooled on ice for 10-15 minutes before use. The incubation was carried out for 1 hour with gentle shaking. After the incubation with SAV-HRP, the membrane was washed, as above. […]

The next experiment has as its system Jurkat cells. Briefly: FACS binding to Jurkat cells (IgG-Y1, scFv-Y1, diabodies, triabodies). The arrangement: species or system human. To be noted: 1 μg scFv-Y1 versus 5 ng IgG-Y1, two-step staining. As for the experimental part:
Binding experiments were performed to determine the level of binding of the IgG-Y1 molecule compared to the binding level of the scFv-Y1 molecule. A two-step staining procedure was employed, wherein 5 ng of IgG-Y1 were reacted with both RAJI cells (negative control, FIG. 44) and Jurkat cells (Y1 positive cells, FIG. 44). For detection, PE-labeled goat anti-human IgG was used. Similarly, 1 μg of scFv-Y1 was reacted with Jurkat cells (FIG. 44), and PE-labeled rabbit anti-scFv was used for detection.
FACS analysis was performed on Jurkat cells using a “three step staining procedure.” First, crude extracts or purified unlabeled scFv are stained, then mouse anti-myc antibodies, and finally, FITC- or PE-conjugated anti-mouse antibodies. FACS analysis requires 5-8×10^5 cells, which have been Ficoll-purified and resuspended in PBS+1% BSA. Binding was carried out for 1 hour at 4° C. After each step, cells were washed and resuspended in PBS+1% BSA. After the final staining step, cells were fixed by re-suspending in PBS, 1% BSA, 2% formaldehyde, and then read by FACS (Becton-Dickinson).
The binding of Y1-scFv was compared to that of diabodies and triabodies.

The test system of experiment [1] is platelet-rich-plasma (PRP). The experiment can be described thus: Ristocetin-induced aggregation of platelet-rich plasma (scFv). It counts as cell-based, human. The following applies: scFv 25 μg/ml, 100% = ristocetin treatment. The protocol:
The effect of Y1 (scFv) on aggregation of platelet-rich-plasma (PRP) was tested at various concentrations of Y1. PRP was pre-incubated with Y1 scFv, Y17 scFv, or a control sTM-1cFv for 4 min at 37° C. before being exposed to ristocetin, an inducer of platelet agglutination and aggregation. A reversible inhibitory effect was observed when scFv was added to PRP prior to the addition of ristocetin, and it was dose dependent.
Blood was collected into a tube containing 3.8% sodium citrate. Platelet-rich plasma was prepared by centrifugation at 250×g for 10 minutes.
For platelet aggregation studies, platelet rich plasma (PRP) and washed platelets were stirred at 500 rpm at 37° C. in whole blood Lumiaggregometer (Chronolog, Havertown, Pa.). The difference in light transmission through the platelet suspension and suspending medium was taken as 100% aggregation. The effect of Y1 on platelet aggregation was evaluated by addition of different concentration of Y1 before the addition of agonist, and the effect was recorded for four minutes.

Experiment [2] concerns the target T1, recombinant bacterial derived glycocalicin (Homo sapiens, UniProt P07359).
T1 construct: glycocalicin (GC, amino acid 1 to amino acid 493 of GPIbα); made in house; host or cells: E. coli BL21 DE3, total cell lysate
Briefly: Western blot on E. coli recombinant glycocalicin. It counts as binding. To be noted: E. coli cell lysates, IPTG induced. As for the experimental part: The DNA fragment encoding for glycocalicin (GC, amino acid 1 to amino acid 493 of GPIbα) was cloned into an IPTG inducible prokaryotic vector cassette. E. coli (BL21 DE3) cells harboring the newly constructed plasmid were grown at 37° C. to O.D. 0.7-0.8, than at 37° C. for 3 hours for in the presence of IPTG for induction.
SDS-polyacrylamide gel loaded either with semi-purified human platelet derived glycocalicin (“GC”) or with E. coli cell lysates (“total”) derived from induced and non-induced cells were analyzed. Western blot analysis was performed with biotinylated Y1-scFv, polyclonal rabbit anti-human glycocalicin antibody, commercially available mouse anti-human CD42 monoclonal antibody (SZ2 Immunotech, PM640 Serotec, HIP1 Pharmigen, AN51 DAKO), and polyclonal antibody against the N-terminus of GPIbα (Sc-7071, Santa Cruz).

B1: Y1 scFv: fully human scFv clone binding platelets and AML cells; SEQ ID NO:25, heavy chain CDR3 SEQ ID NO:8 (protein, listed as Homo sapiens)
scFv: MKYLLPTAAAGLLLLAAQPAMAEVQLVESGGGVVRPGGSLRLSCAASGFTFDDYGMSWVRQAPGKGLEWVSGINWNGGSTGYADSVKGRFTISRDNAKNSLYLQMNSLRAEDTAVYYCARMRAPVIWGQGTLVTVSRGGGGSGGGGSGGGGSSELTQDPAVSVALGQTVRITCQGDSLRSYYASWYQQKPGQAPVLVIYGKNNRPSGIPDRFSGSSSGNTASLTITGAQAEDEADYYCNSRDSSGNHVVFGGGTKLTVLGAAAEQKLISEEDLNGAA
On to B1, for which the “amount bound to KG-1 cells to the same extent” value with KG-1 cells (FITC-labeled, without serum) turned out to be 1 µg. In the experiment on KG-1 cells (Y1 IgG-Biotin 50 ng, Y1 scFvs 5 μg and 10 μg), the “competition with Y1 IgG-Biotin for binding to KG-1 cells” value is reported as “partially competed”. Also, in the experiment with Heparin - BSA, the “Reactivity with Y1” value is “Binds to”. Also, in the experiment with Jurkat cells, the “more molecules needed for a level of detection similar to IgG-Y1” value is listed as “approximately 10^3 fold”. For the same molecule, in experiment [1], the “% aggregation” value amounted to 87%. Moreover, in experiment [2], the “recognition in Western blot” value was “did not recognize”.
